Holding throughout (assay): EMSA
On the technique in general: Mobility shift assays separate free from complexed probe on a gel.

The target of data set [1] is T1, TRF2ΔN (Homo sapiens, UniProt Q15554 87-542).
The target of data set [2] is T2, TRF1 (Homo sapiens, UniProt P54274 1-439).
Data set [3] addresses T1, TRF2ΔN. The source holds these as a separate data set.
Data set [4] has as its target T2, TRF1. The source holds these as a separate data set.
Data set [5] deals with T2, TRF1. The source holds these as a separate data set.

This passage reports binding result and binding signal results from PMC549571.

Read-outs that look alike come from different tables or passages of the source.

T2 sequence (P54274 whole entry): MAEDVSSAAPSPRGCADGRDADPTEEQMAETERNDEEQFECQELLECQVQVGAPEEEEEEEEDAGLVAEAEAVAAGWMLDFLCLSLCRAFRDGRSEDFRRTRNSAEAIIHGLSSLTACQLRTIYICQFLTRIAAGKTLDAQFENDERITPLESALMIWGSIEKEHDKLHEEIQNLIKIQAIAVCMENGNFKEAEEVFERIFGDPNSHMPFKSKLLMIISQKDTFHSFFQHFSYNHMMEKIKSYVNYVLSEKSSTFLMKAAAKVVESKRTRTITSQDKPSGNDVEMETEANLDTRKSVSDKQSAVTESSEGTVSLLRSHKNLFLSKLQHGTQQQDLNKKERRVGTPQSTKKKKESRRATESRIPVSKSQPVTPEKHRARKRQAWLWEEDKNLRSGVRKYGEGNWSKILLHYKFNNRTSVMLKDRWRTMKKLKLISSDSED
T1 sequence (Q15554 87-542, stated change not applied): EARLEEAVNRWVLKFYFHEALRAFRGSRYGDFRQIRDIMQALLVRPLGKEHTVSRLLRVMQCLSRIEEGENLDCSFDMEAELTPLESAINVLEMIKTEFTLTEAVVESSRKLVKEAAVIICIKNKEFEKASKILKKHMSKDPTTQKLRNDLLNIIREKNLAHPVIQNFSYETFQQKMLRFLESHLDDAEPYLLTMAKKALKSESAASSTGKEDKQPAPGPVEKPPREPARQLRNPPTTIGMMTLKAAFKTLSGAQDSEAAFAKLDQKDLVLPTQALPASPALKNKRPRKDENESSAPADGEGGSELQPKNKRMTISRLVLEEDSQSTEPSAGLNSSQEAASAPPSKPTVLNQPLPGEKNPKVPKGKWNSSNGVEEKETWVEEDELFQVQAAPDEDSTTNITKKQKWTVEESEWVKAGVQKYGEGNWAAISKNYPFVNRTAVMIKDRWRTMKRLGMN

B1: non-telomeric mixed (MXT/MXB) (dsDNA)
DNA 1: GTGGATCCGTACGATGGTTTTAGGTGAACACGAATTCGA
DNA 2: TCGAATTCGTGTTCACCTAAAACCATCGTACGGATCCAC
As for B1, the binding result in data set [1] and in data set [2] was “no binding” in each case.

B2: CTRL (dsDNA)
DNA 1: GTGGATCCGTACTTAGGGTTAGGGTTAACACGAATTCGA
DNA 2: TCGAATTCGTGTTAACCCTAACCCTAAGTACGGATCCAC
B2: the binding signal in data set [3] worked out at 55 % bound at 100 nM TRF2ΔN; in data set [4], 61 ± 6 % bound at 25 nM TRF1.

B3: 8oxoG1-1 (dsDNA)
DNA 1: GTGGATCCGTACTTAGGGTTAGGGTTAACACGAATTCGA
DNA 2: TCGAATTCGTGTTAACCCTAACCCTAAGTACGGATCCAC
modifications: 8-oxoG at positions 17, 23 of strand 1
Turning to B3, the binding signal in data set [5] was 18 fold decrease in % bound vs control at 25 nM TRF1.

B4: 8oxoG1 (dsDNA)
DNA 1: GTGGATCCGTACTTAGGGTTAGGGTTAACACGAATTCGA
DNA 2: TCGAATTCGTGTTAACCCTAACCCTAAGTACGGATCCAC
modifications: 8-oxoG at position 17 of strand 1
In the case of B4, the binding signal came out at 11 % bound at 100 nM TRF2ΔN in data set [3] and 31 ± 6 % bound at 25 nM TRF1 in data set [4].

B5: 8oxoG3 (dsDNA)
DNA 1: GTGGATCCGTACTTAGGGTTAGGGTTAACACGAATTCGA
DNA 2: TCGAATTCGTGTTAACCCTAACCCTAAGTACGGATCCAC
modifications: 8-oxoG at positions 16, 17, 18 of strand 1
For B5, the binding signal in data set [4] was 21 fold decrease in % bound vs control at 25 nM TRF1.

B6: 8oxoG2 (dsDNA)
DNA 1: GTGGATCCGTACTTAGGGTTAGGGTTAACACGAATTCGA
DNA 2: TCGAATTCGTGTTAACCCTAACCCTAAGTACGGATCCAC
modifications: 8-oxoG at positions 17, 18 of strand 1
Regarding B6, the figures for the binding signal in data set [3] and in data set [4] were 17 % bound at 100 nM TRF2ΔN and 29 ± 2 % bound at 25 nM TRF1, respectively.
